Measured values published in the supplement of paper PMC10567573.

B1: SPOPL (parent)
chain: AKREETKAMESQRAYRFVQGKDWG

Variants of: B1
Assay: protein stability index of a GFP-peptide fusion (GPS, HEK-293T) (PSI 1-6); higher = more stable
Conditions: c terminus: a fixed tail appended
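Note: lentivirally expressed fusions sorted by FACS into six bins by GFP to DsRed ratio, PSI derived from sequencing read proportions per bin multiplied by bin number.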

Protein stability index: each site, then its substitutions
R13: H 3.62 | K 3.67 | A 3.65 | T 3.42 | V 2.28 | E 4.24 | G 3.61 | M 2.54 | S 3.38 | P 2.61 | C 2.72 | D 4.47 | I 3.11 | F 2.8 | W 2.26 | N 3.92 | L 2.36 | Y 3.32 | Q 3.67
E10: F 2.37 | D 3.02 | W 2.4 | Y 1.73 | P 3.18 | Q 2.95 | A 2.61 | S 3 | L 2.3 | M 2.29 | I 2.15 | C 2.63 | H 2.33 | R 2.39 | K 2.96 | V 2.75 | N 3.34 | G 2.69 | T 3.06
F17: G 4.68 | R 4.59 | V 3.94 | H 3.72 | M 3.96 | C 4.24 | Y 4.18 | A 4.73 | D 4.72 | L 3.67 | I 4.02 | T 4.04 | S 4.19 | N 4.59 | K 4.45 | P 4.03 | E 4.61 | Q 4.37 | W 4.36
M9: K 3.35 | V 3.43 | W 2.74 | I 3.55 | Q 3.69 | S 3.87 | P 3.27 | L 3 | Y 2.83 | N 3.33 | H 3.25 | R 3.11 | T 3.66
V18: C 3.51 | A 4.22
S11: C 2.23 | Y 2.59 | T 2.76 | L 2.36 | R 2.96 | F 2.14 | W 1.88 | A 2.07 | M 2.33 | E 3.77 | V 2.53 | I 2.44 | N 3.47 | D 4.06 | P 2.72 | G 2.54 | H 2.83 | Q 3.58 | K 3.15
A14: Y 2.83 | C 2.82 | N 3.24 | T 3.63 | Q 3.25 | S 3.3 | M 3.49 | F 3.49 | R 3.18 | W 2.81 | K 3.98 | P 2.83 | I 3.8 | D 3.1 | H 3.38 | E 3.67 | L 3.3 | V 3.42 | G 1.9
Q12: I 1.99 | P 2.97 | Y 2.69 | N 3.35 | W 2.4 | H 2.48 | A 2.63 | V 2.06 | K 2.94 | G 2.76 | T 2.78 | D 3.85 | E 3.65 | R 2.61 | F 2.13 | L 1.82 | C 2.55 | M 2.39 | S 3.4
Y15: K 4.61 | V 3.92 | D 5.19 | A 4.14 | S 4.68 | E 4.26 | R 4.3 | L 2.51 | T 4.7 | F 1.39 | W 3.25 | H 3.98 | N 4.35 | I 4.26 | C 2.9 | G 4 | P 4.21 | Q 3.89 | M 3.02
R16: G 3.63 | C 3.77 | Y 3.24 | E 4.2 | F 2.63 | K 3.99 | P 3.68 | Q 4.17 | D 4.07 | L 3.6 | V 3.51 | T 4.04 | W 2.94 | M 3.65 | A 3.69 | H 4.49 | N 4.2 | I 3.42 | S 4.04
